Experiment in all cases: NMR
One test has as its target T1, Bad BH3 peptide BH3 (Homo sapiens, UniProt Q92934).
T1 chain: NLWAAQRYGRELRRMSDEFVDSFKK

The next test has as its target T2, Bak BH3 peptide BH3 (Homo sapiens, UniProt Q16611).
T2 chain: GQVGRQLAIIGDDINR

The next test deals with T3, Bax BH3 peptide BH3 (Homo sapiens, UniProt Q07812).
T3 chain: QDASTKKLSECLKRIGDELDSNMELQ

B1: v-Bcl-2 (protein)
chain: MSHKKSGTYWATLITAFLKTVSKVEELDCVDSAVLVDVSKIITLTQEFRRHYDSVYRADYGPALKNWKRDLSKLFTSLFVDVINSGRIVGFFDVGRYVCEEVLCPGSWTEDHELLNDCMTHFFIENNLMNHFPLEDIFLAQRKFQTTGFTFLLHALAKVLPRIYSGNVIYV
In the case of B1, the results for the Kd with Bad BH3 peptide BH3, with Bak BH3 peptide BH3 and with Bax BH3 peptide BH3 were > 300 µM, < 5 µM and < 5 µM, respectively.

The record behind these values is PMC1238745 (2005).
